The target in assay [1] is T1, truncated CD123 target (D2/D3 domains), D2-D3-hCD123 (human, UniProt P26951 101-305).
T1 construct: domain: D2/D3; Bought from Evitria; Detected with hIgG-d2, so it probably carries an Fc tag; also called truncated target (D2-D3-hCD123)
T1 sequence (looked up): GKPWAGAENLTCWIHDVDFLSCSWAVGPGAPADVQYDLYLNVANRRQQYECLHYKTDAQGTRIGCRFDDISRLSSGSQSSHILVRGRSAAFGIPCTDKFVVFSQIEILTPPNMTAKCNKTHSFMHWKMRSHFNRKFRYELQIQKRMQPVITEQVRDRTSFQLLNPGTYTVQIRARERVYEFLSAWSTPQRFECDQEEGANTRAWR
Description: HTRF, purified DARPin protein with truncated D2-D3-hCD123, hIgG-d2 and anti-His-Tb. The text has this:
(§1) The CD123 epitope bound by CD123-specific ankyrin repeat proteins of the invention was investigated using truncated CD123 target protein as well as competition ELISA and HTRF against the benchmark control molecule flotetuzumab-similar (CD3-CD123 specific DART®, purchased from Evitria) and the natural ligand IL-3 (purchased by Peprotech), First, full-length (NTD/D2/D3 domains) and truncated (D2/D3 domains) CD123 targets (purchased from Evitria) were applied in an HTRF binding assay in which they were incubated with DARPin® protein #1 and binding was detected by using either the HTRF reagents Anti 6His-d2 and Streptavidin-Tb for full-length CD123 or hIgG-d2 and anti-His-Tb for truncated CD123. […] The excitation of the reaction was measured at 340 nm and emission at 665 nm and the background at 340 nM and 620 nM respectively. […] Binding was detected by using either the HTRF reagents Anti 6His-d2 and Streptavidin-Tb for full-length CD123 or hIgG-d2 and anti-His-Tb for truncated CD123 target.
In general terms: TR-FRET usually uses a lanthanide donor and a delayed reading to cut background.

For assay [2], the target named is T2, biotinylated extracellular domains of human CD123 with C-terminal Fc tag and Avi tag (bio.hCD123-Fc(kih)-Avi) (human, UniProt P26951 19-303, biotinylated with BirA-GST (Avi tag)).
T2 construct: Bought from Evitria; the second Fc chain and the number of CD123 arms are not described; also called biotinylated hCD123; recombinant human CD123 target; not shown: Avi tag
T2 sequence: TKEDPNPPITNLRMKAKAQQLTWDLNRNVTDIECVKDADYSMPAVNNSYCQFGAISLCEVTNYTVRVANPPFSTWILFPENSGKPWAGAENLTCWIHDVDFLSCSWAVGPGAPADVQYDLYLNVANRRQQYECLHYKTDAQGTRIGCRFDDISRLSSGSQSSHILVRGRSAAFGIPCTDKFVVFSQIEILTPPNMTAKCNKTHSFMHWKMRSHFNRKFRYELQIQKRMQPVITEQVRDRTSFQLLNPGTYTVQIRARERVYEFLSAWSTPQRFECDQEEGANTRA
Put plainly: HTRF, full-length biotinylated hCD123-Fc(kih)-Avi.
Description: as §1

B1: DARPin® protein #20 (non-binding DARPin molecule) (designed binder)
chain: DLGKKLLEAARAGQDDEVRELLKAGADVNAKDKDGYTPLHLAAREGHLEIVEVLLKAGADVNAKDKDGYTPLHLAAREGHLEIVEVLLKAGADVNAQDKSGKTPADLAADAGHEDIAEVLQKAA
notes: Control
Regarding B1, the binding result in assay [1] and in assay [2] was “no binding” in each case.

For the origin of these results see patent US20240150475A1 (Molecular Partners, published 2024).
